Assay results as given in PMC5346138, “High-affinity RNA binding by a hyperthermophilic single-stranded DNA-binding protein”.
Substitutions are numbered along the chain they refer to. Names and notes keep the numbering of the source.

Columns and labels:
[1] = molecular target: T1, SsoSSB (single-stranded DNA-binding protein) (Sulfolobus solfataricus, UniProt Q97W73 1-148); assay: ITC; apparent Kd, 50 C; text says 21T, Fig. 1 legend says poly-A DNA; ITC: 20 mM MES pH 6.5, 100 mM K-glutamate, 1 mM MgCl2, 50 C; PIFE: 50 mM Tris-HCl pH 8.0, 10 mM KCl; smFRET: same buffer plus Trolox and oxygen scavenger, room; conditions: protein: recombinant
T1 sequence: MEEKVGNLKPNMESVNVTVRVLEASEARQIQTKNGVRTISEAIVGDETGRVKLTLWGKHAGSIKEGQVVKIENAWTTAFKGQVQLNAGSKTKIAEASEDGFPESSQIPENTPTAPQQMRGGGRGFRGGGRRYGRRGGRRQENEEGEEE

[2] = molecular target: T1, SsoSSB (single-stranded DNA-binding …); assay: ITC; apparent Kd, 50 C; text says 21U, Fig. 1 legend says poly-rA; ITC: 20 mM MES pH 6.5, 100 mM K-glutamate, 1 mM MgCl2, 50 C; PIFE: 50 mM Tris-HCl pH 8.0, 10 mM KCl; smFRET: same buffer plus Trolox and oxygen scavenger, room; conditions: protein: recombinant
[3] = molecular target: T2, SsoSSB A114C-Alexa Fluor 647 (Sulfolobus solfataricus, UniProt Q97W73 1-148, A114C); assay: single-molecule FRET; 1-2 nM protein; dissociation 3.8 +/- 0.8 s-1, association 0.06 +/- 0.01 s-1; ITC: 20 mM MES pH 6.5, 100 mM K-glutamate, 1 mM MgCl2, 50 C; PIFE: 50 mM Tris-HCl pH 8.0, 10 mM KCl; smFRET: same buffer plus Trolox and oxygen scavenger, room; conditions: protein: recombinant; tags: Alexa Fluor 647 label; chain copies: 2; label: 5' biotin, 3' Cy3; single-stranded
T2 sequence: T1 sequence with A114C

[4] = molecular target: T1, SsoSSB (single-stranded DNA-binding …); assay: fluorescence (PIFE); 10 nM DNA, 10 mM KCl; Hill 1.6 +/- 0.5; ITC: 20 mM MES pH 6.5, 100 mM K-glutamate, 1 mM MgCl2, 50 C; PIFE: 50 mM Tris-HCl pH 8.0, 10 mM KCl; smFRET: same buffer plus Trolox and oxygen scavenger, room; conditions: protein: recombinant, label: 5' biotin, 3' Cy3
[5] = molecular target: T3, SsoSSB OB domain (15N) (Sulfolobus solfataricus, UniProt Q97W73 1-114); assay: NMR HSQC; 1:1, 298 K; 2MNA is an earlier structure; ITC: 20 mM MES pH 6.5, 100 mM K-glutamate, 1 mM MgCl2, 50 C; PIFE: 50 mM Tris-HCl pH 8.0, 10 mM KCl; smFRET: same buffer plus Trolox and oxygen scavenger, room; conditions: protein: recombinant; single-stranded
T3 sequence: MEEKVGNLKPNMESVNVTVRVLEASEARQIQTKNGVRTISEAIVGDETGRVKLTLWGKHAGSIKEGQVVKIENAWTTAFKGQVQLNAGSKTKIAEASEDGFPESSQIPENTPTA

[6] = molecular target: T3, SsoSSB OB domain (15N); assay: NMR HSQC; 1:1, 298 K; the RNA complex is only a HADDOCK model; ITC: 20 mM MES pH 6.5, 100 mM K-glutamate, 1 mM MgCl2, 50 C; PIFE: 50 mM Tris-HCl pH 8.0, 10 mM KCl; smFRET: same buffer plus Trolox and oxygen scavenger, room; conditions: protein: recombinant; single-stranded
[7] = molecular target: T1, SsoSSB (single-stranded DNA-binding …); assay: fluorescence (PIFE); ~0.7 nM RNA; Hill 1.7 +/- 0.2; ITC: 20 mM MES pH 6.5, 100 mM K-glutamate, 1 mM MgCl2, 50 C; PIFE: 50 mM Tris-HCl pH 8.0, 10 mM KCl; smFRET: same buffer plus Trolox and oxygen scavenger, room; conditions: protein: recombinant, label: 5' biotin, 3' Cy3
[8] = molecular target: T2, SsoSSB A114C-Alexa Fluor 647; assay: single-molecule FRET; 1-2 nM protein; dissociation 6 +/- 1 s-1, association 0.12 +/- 0.08 s-1; ITC: 20 mM MES pH 6.5, 100 mM K-glutamate, 1 mM MgCl2, 50 C; PIFE: 50 mM Tris-HCl pH 8.0, 10 mM KCl; smFRET: same buffer plus Trolox and oxygen scavenger, room; conditions: protein: recombinant; tags: Alexa Fluor 647 label; label: 5' biotin, 3' Cy3; single-stranded
[9] = molecular target: T1, SsoSSB (single-stranded DNA-binding …); assay: fluorescence (PIFE); 10 nM RNA, 10 mM KCl; Hill 1.8 +/- 0.3; ITC: 20 mM MES pH 6.5, 100 mM K-glutamate, 1 mM MgCl2, 50 C; PIFE: 50 mM Tris-HCl pH 8.0, 10 mM KCl; smFRET: same buffer plus Trolox and oxygen scavenger, room; conditions: protein: recombinant, label: 5' biotin, 3' Cy3
[10] = molecular target: T1, SsoSSB (single-stranded DNA-binding …); assay: FRET hairpin melting; hairpin disrupted at 20 nM SsoSSB; ITC: 20 mM MES pH 6.5, 100 mM K-glutamate, 1 mM MgCl2, 50 C; PIFE: 50 mM Tris-HCl pH 8.0, 10 mM KCl; smFRET: same buffer plus Trolox and oxygen scavenger, room; conditions: protein: recombinant; label: 5' Cy5, 3' Cy3; hairpin with single-nucleotide bulge

With TTTTTTTTTTTTTTTTTTTTT (ssDNA) [21T DNA] the Kd [1] was 95 ± 0.6 nM.

For UUUUUUUUUUUUUUUUUUUUU (ssRNA) [R21U (21U RNA)], the Kd [2] was 93 ± 0.4 nM.

CCCCCCCCCCCC (ssDNA) [C12ssDNA] was tested, and the binding result [3] was “binds” and the Kd [4] was 8.2 ± 0.9 nM.

TTTTTT (ssDNA) [6T ssDNA]: binds [5].

UUUUUU (ssRNA) [6U RNA]: binds [6].

With CCCCCCCCCCCC (ssRNA) [C12ssRNA] the Kd [7] was 6 ± 1 nM, the binding result [8] was “binds” and the Kd [9] was 4.2 ± 0.6 nM.

UGAUAAUCUCUUAUAGAAUUGAAAGU (structured_RNA) [RNA Hairpin]: binds [10].
